# Measurements as given in publication PMC11784017 (2024).
# Target: T1, SVCV-G protein, purified, biotinylated (spring viremia of carp virus (SVCV), UniProt Q91DS0 19-509, biotin (biotinylated))
# T1 chain: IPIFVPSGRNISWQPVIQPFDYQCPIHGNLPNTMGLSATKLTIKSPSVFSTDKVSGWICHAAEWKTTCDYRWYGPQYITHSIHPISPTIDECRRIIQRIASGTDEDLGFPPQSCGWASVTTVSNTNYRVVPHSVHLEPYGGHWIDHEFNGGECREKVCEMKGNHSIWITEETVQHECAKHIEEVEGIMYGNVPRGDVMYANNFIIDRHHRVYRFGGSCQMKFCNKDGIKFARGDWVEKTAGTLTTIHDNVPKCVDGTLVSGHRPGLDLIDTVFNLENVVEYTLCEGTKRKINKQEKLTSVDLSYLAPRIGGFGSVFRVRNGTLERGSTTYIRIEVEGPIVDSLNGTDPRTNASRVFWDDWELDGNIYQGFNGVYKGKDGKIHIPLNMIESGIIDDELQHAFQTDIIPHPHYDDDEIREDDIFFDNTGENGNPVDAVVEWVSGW
# Experiment: BLI
binder,measurement,value
scFv-1 (scFv) chain 1: QSVEESGGRLVTPGTPLTLTCTASGFSLSTYYMTWVRQAPGKGLEWIGIIDPYGTTWSASWVKGRFTISRTSTTVDLKMTSLTAADTATYFCARIDSIYTIGHCDLWGQGTLVTVSL chain 2: ELVMTQTPASVSAAVGGTVTIKCQASQSIGTALAWYQQKPGQPPKLLIYKTSTLASGVSSRFKGSGSGTEFTLTISDLECADAVTYYCQYAYYGGNDVGGAFGGGDRAGDP,Kd,3.12 µM
scFv-2 (scFv) chain 1: QSVEESGGRLITPGTPLTLTCTASGFSLSSHYMIWVRRTPGKGLEWIGLIFISGSTNYANWAKGRFTVSRTSTTVDLKITSPTTEDTATYFCARGRGGTDYQSWLFGLWGQGTVVTVSS chain 2: ELVMTQTPSPVSVAVGGTVTINCQSSPSVYSNYLSWYQQKPGQPPKQLIYGASSLASGVPSRFKGSGSGTQFTLTISGVECDDAATYYCVGWKGGPNGEFAFGGGDRAGDP,Kd,3.71 µM
